In US20260274993A1 (HUMMINGBIRD BIOSCIENCE PTE, published 2026):

B1: D011-7016.hIgG1 (antibody)
heavy: not shown
light: DIVMTQSPATLSVTPGDSVSLSCRANQSIDNNLHWYQQRSHESPRLLINYASQSISGIPSRFSGSGSGTDFTLSISSVETEDFGMYFCQQSYGWPYTFGGGTKLEIKRTVAAPSVFIFPPSDEQLKSGTASVVCLLNNFYPREAKVQWKVDNALQSGNSQESVTEQDSKDSTYSLSSTLTLSKADYEKHKVYACEVTHQGLSSPVTKSFNRGEC
B2: D011-7016-LD2 H0/L0 IgG2a (antibody, V domains shown)
VH: QVQLQESGPGLVKPSETLSLTCTVSGDAITSGYWNWIRQPPGKGLEYMGYISYSGSAHYNPSLKSRITISRDTSKNQYSLKLSSVTAADTAVYYCASYSFAYWGQGTLVTVSS
VL: EIVMTQSPDFQSVTPKEKVTITCRASQSIDNQLHWYQQKPDQSPKLLINYASQSISGVPSRFSGSGSGTDFTLTISSLEAEDAATYYCQQSYGWPYTFGQGTKLEIKR
B3: D011-7016-LD2 H5/L1 IgG2a (antibody, V domains shown)
VH: QVQLQESGPGLVKPSQTLSLTCTVSWDAITSGYWNWVRQHPGNKLEYMGYISYSGSAHYNPSLKSRITISRDTSKNQYSLKLSSVTAADTAVYYCASYSFAYWGQGTLVTVSS
VL: DIVMTQSPPSLSVTPGEPASLSCRASQSIDNQLHWYLQKPGQSPQLLINYASQSISGVTDRFSGSGSGTDFTLKISRVEAEDVGVYFCQQSYGWPYTFGGGTKVEIKR
B4: D011-7016-LD2 H5/L2 IgG2a (antibody, V domains shown)
VH: QVQLQESGPGLVKPSQTLSLTCTVSWDAITSGYWNWVRQHPGNKLEYMGYISYSGSAHYNPSLKSRITISRDTSKNQYSLKLSSVTAADTAVYYCASYSFAYWGQGTLVTVSS
VL: DIVMTQSPPSLSVTPGESASISCRASQSIDNQLHWYLQKPGQSPQLLINYASQSISGVTDRFSGSGSGTDFTLKISRVEAEDVGMYFCQQSYGWPYTFGGGTKVEIKR
B5: D011-7016-LD2 H4/L2 IgG2a (antibody, V domains shown)
VH: QVQLQESGPGLVKPSETLSLTCTVSWDAITSGYWNWVRQPPGNKLEYMGYISYSGSAHYNPSLKSRITISRDTSKNQYSLKLSSVTAADTAVYYCASYSFAYWGQGTLVTVSS
VL: DIVMTQSPPSLSVTPGESASISCRASQSIDNQLHWYLQKPGQSPQLLINYASQSISGVTDRFSGSGSGTDFTLKISRVEAEDVGMYFCQQSYGWPYTFGGGTKVEIKR
B6: D011-6040 (antibody, human IgG1, kappa, V domains shown)
VH: EVQLQQSGAEFVRSGASVKLSCTASGFNIKDYYMHWVKQRPEQGLDWIGWIDPENGDADYDPKFQGKATMTADTSSNTAYLHLSSLTSEDAAVYYCNACHYYGYEDAMDYWGQGTSVTVSS
VL: DIQMTQSPSSLSASLGERVSLTCRASQEISGYLSWLQQKPDGTIKRLIYAASTLDSGVPKRFSGSRSGSDYSLTISSLESEDFADYYCLQYAGYPRTFGGGTRLEIKR
notes: also called [3]; D011-6040.IgG2a
B7: D011-7016-LD1.IgG2a (antibody, V domains shown)
VH: EVQLVESGPSLVKPSQTLSLICSVTGDAITSGYWNWVRKFPGNKLEYMGYISYSGSAHYNPSLKSRISITRDTSKNQYYLQLNSMTTEDTATYYCASYSFAYWGQGTLVTVSA
VL: DIVMTQSPATLSVTPGDSVSLSCRAQQSIDNQLHWYQQRSHESPRLLINYASQSISGIPSRFSGSGSGTDFTLSISSVETEDFGMYFCQQSYGWPYTFGGGTKLEIKR
B8: D011-7016.IgG2a (antibody)
heavy: EVQLVESGPSLVKPSQTLSLICSVTGDSITSGYWNWVRKFPGNKLEYMGYISYSGSAHYNPSLKSRISITRDTSKNQYYLQLNSMTTEDTATYYCASYSFAYWGQGTLVTVSAASTKGPSVFPLAPSSKSTSGGTAALGCLVKDYFPEPVTVSWNSGALTSGVHTFPAVLQSSGLYSLSSVVTVPSSSLGTQTYICNVNHKPSNTKVDKKVEPKSCDKTHTCPPCPAPELLGGPSVFIFPPKIKDVLMISLSPIVTCVVVDVSEDDPDVQISWFVNNVEVHTAQTQTHREDYNSTLRVVSALPIQHQDWMSGKEFKCKVNNKDLPAPIERTISKPKGSVRAPQVYVLPPPEEEMTKKQVTLTCMVTDFMPEDIYVEWTNNGKTELNYKNTEPVLDSDGSYFMYSKLRVEKKNWVERNSYSCSVVHEGLHNHHTTKSFSRTPGK
light: DIVMTQSPATLSVTPGDSVSLSCRANQSIDNNLHWYQQRSHESPRLLINYASQSISGIPSRFSGSGSGTDFTLSISSVETEDFGMYFCQQSYGWPYTFGGGTKLEIKRTVAAPSVFIFPPSDEQLKSGTASVVCLLNNFYPREAKVQWKVDNALQSGNSQESVTEQDSKDSTYSLSSTLTLSKADYEKHKVYACEVTHQGLSSPVTKSFNRGEC
notes: also called [4]
B9: D011-7016-LD2.IgG2a (antibody, V domains shown)
VH: EVQLVESGPSLVKPSQTLSLICSVTGDAITSGYWNWVRKFPGNKLEYMGYISYSGSAHYNPSLKSRISITRDTSKNQYYLQLNSMTTEDTATYYCASYSFAYWGQGTLVTVSA
VL: DIVMTQSPATLSVTPGDSVSLSCRASQSIDNQLHWYQQRSHESPRLLINYASQSISGIPSRFSGSGSGTDFTLSISSVETEDFGMYFCQQSYGWPYTFGGGTKLEIKR
notes: also called [8]

Experiments:
tabalumab [1] = experiment: cell-based or functional assay
zanolimumab [2] = experiment: cell-based or functional assay
[3] = target: T1, antibodies containing VH4-34 endogenously expressed by cell line OCI-Ly3; experiment: cell-based or functional assay
[4] = target: T1, antibodies containing VH4-34 …; experiment: flow cytometry, EC50 of MFI, OCI-Ly3 cells endogenously expressing VH4-34
Protocol: (§1) Binding was assessed by FACS. Briefly, cells were assayed in PBS with 0.5% BSA and 2 mM EDTA. Live dead staining was performed with a live dead cell dye for 15 minutes at 4° C. […] Following this, cells were incubated with a secondary PE goat anti-mouse IgG (1:300) for 30 mins at 4° C. and PE readout was measured.

3A6 [5] = target: T2, 3A6; experiment: ELISA, human IgG1 antigen captured on anti-human IgG Fc;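 note: humanized antibodies bound to human IgG1 antigen captured at 1 µg/ml on anti-human IgG Fc plates, detected with anti-mouse IgG Fc/HRP, VSTB112 serving as negative control protein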
T2 construct: also called 3A6 antibody (containing VH4-34 antigen); 3A6 (VH4-34 antigen)
Protocol: (§2) The binding affinity of each humanized antibody for 3A6 antibody (containing VH4-34 antigen), 3A6-FR1 (VH4-34 FR1 mutant) and VSTB112 (negative control protein) was evaluated.
(§3) Plates were coated with 1 ug/ml of anti-human IgG Fc overnight at 4° C. Plates were washed thrice with PBS/0.05% Tween (PBST) before blocking with 5% BSA for 1 h at room temp (RT). Plates were then washed again before addition of 1 μg/ml of 3A6 (VH4-34 antigen), 3A6-FR1 (VH4-34 FR1 mutant) or VSTB112 (negative control protein) human IgG1 proteins. Plates were washed thrice. […] After washing the plates, anti-mouse IgG Fc/HRP diluted 1:5000 in 1% BSA was added and incubated for 1 h at RT. Plates were washed before detection using 1-step ELISA substrate.

3A6 mutant FR1 [6] = target: T3, 3A6 mutant FR1; experiment: as above
T3 construct: also called 3A6 FR1; 3A6-FR1 (VH4-34 FR1 mutant)
Protocol: as §2, §3

3A6 [7] = target: T2, 3A6; experiment: flow cytometry (geomean MFI), CHO cells overexpressing the surface antibody
zanolimumab [8] = target: T4, zanolimumab; experiment: as above
T4 construct: VH4-34-containing antibody used as the antigen, overexpressed on the surface of CHO cells; also called Zano.hIgG1

tabalumab [9] = experiment: as above
[10] = target: T1, antibodies containing VH4-34 …; experiment: flow cytometry, EC50 of % parent, OCI-Ly3 cells endogenously expressing VH4-34
Protocol: as §1

3A6 [11] = target: T2, 3A6; experiment: flow cytometry, EC50 of % parent (FITC), CHO cells overexpressing surface 3A6
Protocol: (§4) FACS was performed according to standard protocols. Briefly, cells were assayed in PBS with 0.5% BSA and 2 mM EDTA. […] Following this, cells were incubated with a secondary anti-mouse FITC antibody for 30 mins at 4° C. FITC readout was measured by FACS on a benchtop flow cytometer.

zanolimumab [12] = target: T4, zanolimumab; experiment: flow cytometry, EC50 of % parent (FITC), CHO cells overexpressing surface zanolimumab (ZANO)
Protocol: as §4

Zanolimumab mutant FR1 [13] = target: T5, Zanolimumab mutant FR1; experiment: flow cytometry, EC50 of % parent (FITC), CHO cells expressing zanolimumab mutant FR1 (ZANO FR1); curve in FIG. 2A reaches about 95 % parent
T5 construct: also called Zano FR1
Protocol: as §4

[14] = target: T1, antibodies containing VH4-34 …; experiment: flow cytometry, EC50 of % parent (PE), OCI-Ly3 cells endogenously expressing VH4-34; curve in FIG. 4A reaches only about 40 % parent
Protocol: (§5) FACS was performed according to standard protocols. Briefly, cells were assayed in PBS with 0.5% BSA and 2 mM EDTA. Live dead staining was performed with a live dead cell dye for 15 minutes at 4° C. […] Following this, cells were incubated with a secondary PE goat anti-mouse IgG for 30 mins at 4° C. and PE readout was measured.

Tabalumab mutant FR1 [15] = target: T6, Tabalumab mutant FR1; experiment: flow cytometry, EC50 of % parent (FITC), CHO cells expressing tabalumab mutant FR1 (TABA FR1); curve in FIG. 2A levels at only about 15 % parent
T6 construct: also called Taba FR1
Protocol: as §4

3A6 mutant FR1 [16] = target: T3, 3A6 mutant FR1; experiment: flow cytometry, EC50 of % parent (FITC), CHO cells expressing 3A6 mutant FR1 (3A6 FR1); curve in FIG. 2A reaches about 95 % parent
Protocol: as §4

tabalumab [17] = experiment: flow cytometry, EC50 of % parent (FITC), CHO cells overexpressing surface tabalumab (TABA)
Protocol: as §4

Zanolimumab mutant FR1 [18] = target: T5, Zanolimumab mutant FR1; experiment: flow cytometry, % parent (FITC), CHO cells expressing zanolimumab mutant FR1
Protocol: (§6) For FACS evaluation, cells were assayed in PBS with 0.5% BSA and 2 mM EDTA. […] Cells were incubated with a secondary anti-mouse FITC antibody for 20 mins at 4° C. FITC readout was measured by FACS.

Tabalumab mutant FR1 [19] = target: T6, Tabalumab mutant FR1; experiment: flow cytometry, % parent (FITC), CHO cells expressing tabalumab mutant FR1
Protocol: as §6

3A6 [20] = target: T2, 3A6; experiment: flow cytometry, EC50 of % parent (FITC), CHO cells overexpressing surface 3A6; remark: listed apart in the source
Protocol: as §6

zanolimumab [21] = target: T4, zanolimumab; experiment: flow cytometry, EC50 of % parent (FITC), CHO cells overexpressing surface zanolimumab (Zano)
Protocol: as §6

tabalumab [22] = experiment: flow cytometry, EC50 of % parent (FITC), CHO cells overexpressing surface tabalumab (Taba)
Protocol: as §6

3A6 mutant FR1 [23] = target: T3, 3A6 mutant FR1; experiment: flow cytometry, % parent (FITC), CHO cells expressing 3A6 mutant FR1
Protocol: as §6

[24] = target: T1, antibodies containing VH4-34 …; experiment: flow cytometry, EC50 of % parent (PE), OCI-Ly3 cells endogenously expressing VH4-34
Protocol: as §5

3A6 mutant FR1 [25] = target: T3, 3A6 mutant FR1; experiment: flow cytometry, % parent (FITC), CHO cells expressing 3A6 mutant FR1; remark: listed apart in the source
Protocol: as §4

IGM-55.5 = target: T7, IGM-55.5; experiment: ELISA on plate-coated IGM-55.5 (1 ug/ml), detection with HRP goat anti-mouse IgG
T7 construct: Cold agglutinin antibody coated on the plate in the ELISA
Protocol: Plate was washed 3× with TBS+0.1% Tween 20. […] A secondary antibody (HRP-conjugated goat anti-mouse IgG) was prepared at 1:5000 dilution in blocking buffer and added to the plate with 1 hr incubation RT. TMB ELISA substrate was added and incubated for 15 mins at RT in the dark, before adding the stop solution. The absorbance was read at 450 nm.

T4 sequence (VH, as listed by the source, chain 1 of 2): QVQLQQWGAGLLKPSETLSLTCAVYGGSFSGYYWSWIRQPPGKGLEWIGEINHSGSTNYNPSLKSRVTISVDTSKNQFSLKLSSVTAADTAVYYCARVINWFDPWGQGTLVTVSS
T4 sequence (VL, as listed by the source, chain 2 of 2): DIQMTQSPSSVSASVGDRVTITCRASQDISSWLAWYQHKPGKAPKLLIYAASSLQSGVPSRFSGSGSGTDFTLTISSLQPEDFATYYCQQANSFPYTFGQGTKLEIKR
T2 sequence (VH, as listed by the source, chain 1 of 2): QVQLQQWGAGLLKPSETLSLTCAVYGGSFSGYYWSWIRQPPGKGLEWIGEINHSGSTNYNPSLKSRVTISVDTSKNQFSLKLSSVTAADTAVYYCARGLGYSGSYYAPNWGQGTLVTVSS
T2 sequence (VL, as listed by the source, chain 2 of 2): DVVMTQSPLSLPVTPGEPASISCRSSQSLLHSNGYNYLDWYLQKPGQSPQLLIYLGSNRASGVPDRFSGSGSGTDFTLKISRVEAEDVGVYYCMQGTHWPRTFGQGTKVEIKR
T5 sequence (VH, as listed by the source, chain 1 of 2): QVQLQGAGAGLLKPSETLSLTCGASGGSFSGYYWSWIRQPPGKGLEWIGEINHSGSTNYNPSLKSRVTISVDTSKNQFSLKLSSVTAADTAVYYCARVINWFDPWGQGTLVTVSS
Sequence of tabalumab (VH, as listed by the source, chain 1 of 2): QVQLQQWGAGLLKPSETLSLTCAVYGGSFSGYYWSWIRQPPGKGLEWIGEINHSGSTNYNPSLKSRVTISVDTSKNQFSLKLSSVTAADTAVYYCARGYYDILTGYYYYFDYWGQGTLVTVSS
Sequence of tabalumab (VL, as listed by the source, chain 2 of 2): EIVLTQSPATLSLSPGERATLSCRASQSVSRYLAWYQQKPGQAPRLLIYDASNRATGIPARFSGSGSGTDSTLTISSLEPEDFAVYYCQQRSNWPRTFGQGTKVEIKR
T3 sequence (VH, as listed by the source, chain 1 of 2): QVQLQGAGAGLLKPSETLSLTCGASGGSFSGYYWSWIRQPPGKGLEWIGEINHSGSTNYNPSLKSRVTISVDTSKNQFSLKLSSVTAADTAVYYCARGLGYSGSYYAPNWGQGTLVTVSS
T6 sequence (VH, as listed by the source, chain 1 of 2): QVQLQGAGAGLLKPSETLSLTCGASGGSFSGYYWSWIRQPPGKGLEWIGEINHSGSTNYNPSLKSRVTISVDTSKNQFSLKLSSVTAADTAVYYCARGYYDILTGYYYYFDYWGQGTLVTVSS

Binder | EC50 [4] | EC50 (3A6 [5]) | binding result (3A6 mutant FR1 [6]) | EC50 (3A6 [7]) | EC50 (zanolimumab [8]) | EC50 (tabalumab [9]) | EC50 [10] | binding result (Zanolimumab mutant FR1 [18]) | binding result (Tabalumab mutant FR1 [19]) | EC50 (3A6 [20]) | EC50 (zanolimumab [21]) | EC50 (tabalumab [22]) | further results
B1 | – | – | – | – | – | – | – | – | – | – | – | – | EC50 of ADCC reporter luminescence (RLU), Jurkat Lucia NFAT-CD16 effector cells with tabalumab-expressing CHO target cells (tabalumab [1]): 1.02 nM; EC50 of ADCC reporter luminescence (RLU), Jurkat Lucia NFAT-CD16 effector cells with zanolimumab-expressing CHO target cells (zanolimumab [2]): 1.09 nM; EC50 of ADCP (% CFSE of CD14+ cells), M0 macrophages with CFSE-labelled OCI-Ly3 target cells [3]: 61.5 pM
B2 | 0.271 nM | 0.0369 nM | no binding (tested: 1 µg/ml (highest concentration)) | 0.605 nM | 0.453 nM | 0.376 nM | 3.84 pM | – | – | – | – | – | –
B3 | 0.308 nM | 0.0295 nM | no binding (tested: 1 µg/ml (highest concentration)) | 0.59 nM | 0.645 nM | 0.313 nM | 4.7 pM | – | – | – | – | – | –
B4 | 0.281 nM | 0.0432 nM | no binding (tested: 1 µg/ml (highest concentration)) | 0.59 nM | 0.65 nM | 0.284 nM | 4.38 pM | – | – | – | – | – | –
B5 | 0.33 nM | 0.0532 nM | no binding (tested: 1 µg/ml (highest concentration)) | – | – | – | 4.28 pM | – | – | – | – | – | –
B6 | – | – | – | – | – | – | – | – | – | – | – | – | EC50 (3A6 [11]): 0.00895 nM; EC50 (zanolimumab [12]): 0.0043 nM; EC50 (Zanolimumab mutant FR1 [13]): 0.821 nM; EC50 [14]: 0.661 nM; EC50 (Tabalumab mutant FR1 [15]): 3.93 nM; EC50 (3A6 mutant FR1 [16]): 4.8 nM; EC50 (tabalumab [17]): 0.00587 nM
B7 | – | – | – | – | – | – | – | no binding (tested: Log M about -8.1 (about 8e-9 M)) | no binding (tested: Log M about -8.1 (about 8e-9 M)) | 10.4 pM | 10.5 pM | 8.63 pM | binding result (3A6 mutant FR1 [23]): no binding (tested: Log M about -8.1 (about 8e-9 M))
B8 | – | – | – | – | – | – | – | no binding (tested: Log M about -8.1 (about 8e-9 M)) | no binding (tested: Log M about -8.1 (about 8e-9 M)) | 7.51 pM | 9.26 pM | 5.58 pM | EC50 [24]: 0.0194 nM; EC50 (3A6 [11]): 0.0258 nM; EC50 (zanolimumab [12]): 0.0164 nM; binding result (3A6 mutant FR1 [25]): no binding (tested: Log M about -7.2 (about 7e-8 M)); EC50 (read off the curve) (IGM-55.5): ~0.2 pM; EC50 (tabalumab [17]): 0.0313 nM
B9 | 0.243 nM | 0.0254 nM | – | 0.519 nM | 0.692 nM | 0.28 nM | 4.77 pM | no binding (tested: Log M about -8.1 (about 8e-9 M)) | no binding (tested: Log M about -8.1 (about 8e-9 M)) | 9.09 pM | 8.92 pM | 6.88 pM | binding result (3A6 mutant FR1 [23]): no binding (tested: Log M about -8.1 (about 8e-9 M))
